The values below come from patent publication US20220144922A1 (Adimab, published 2022).

The target in assay [1] is RSV F protein of subtype B strain 18537, on virus (respiratory syncytial virus subtype B …, UniProt P13843 26-574). The assay can be described thus: cell-based or functional assay.
Assay [2] has as its target RSV F protein of subtype A strain A2, on virus (respiratory syncytial virus subtype A …, UniProt P03420 26-574). Nature of the assay: cell-based or functional assay.

B1: ADI-15636 (antibody, V domains shown)
VH: EVQLVESGAEVKKPGSSVKVSCKASADTFSSYAISWVRQAPGQGLEWMGGILPILGTANSAQKFRGRVTFTADESTTTAYMELSSLRSEDTAVYYCARLAGPRWPGYGMDVWGQGTLVTVSS
VL: DIQLTQSPSFLSASVGDRVTITCRASQGISSYLAWYQQKPGKAPKLLIYAASTLQSGVPSRFSGSGSGTEFTLTISSLQPEDFATYYCQQLNSFPLTFGGGTKVEIK
For the molecule B1, the “Neut IC50 (ug/ml) subtype B” value in assay [1] came out at 6.44 µg/mL. Besides, in assay [2], the “Neut IC50 (ug/ml) subtype A” value was more than 10 µg/mL.

B2: ADI-15634 (antibody, V domains shown)
VH: QVQLVQSGAEVKKPGSSVKVSCKASGGTFSSYAISWVRQAPGQGLEWMGGIIPIFGTVNYAQKFQGRVTITADESTSTAYMELSSLRSEDTAVYYCARDRSVTPRYYGMDVWGQGTTVTVSS
VL: EIVMTQSPATLSLSPGERATLSCRASQSVSSYLAWYQQKPGQAPRLLIYDASNRATGIPARFSGSGSGTDFTLTISSLEPEDFAVYYCQHRSNWPPLTFGPGTKLEIK
Turning to B2, the “Neut IC50 (ug/ml) subtype B” value in assay [1] was more than 10 µg/mL. Moreover, the “Neut IC50 (ug/ml) subtype A” value in assay [2] was more than 10 µg/mL.

B3: ADI-15664 (antibody, V domains shown)
VH: EVQLVESGAEVKKPGSSVKVSCKASGGTFSSYAISWVRQAPGQGLEWMGGTIPIFGTINYAQKFQGRLTINADASTSTAYMELSSLRSEDTAVYFCARDRTTAVRYYAMDVWGQGTTVTVSS
VL: EIVLTQSPATLSLSPGERATLSCRASQSVSSYLAWYQQKPGQAPRLLIYDTSNRATDIPARFSGSGSGTDFTLTISSLEPEDFAVYYCQHRANWPPLTFGGGTKVEIK
As to B3, in assay [1], the “Neut IC50 (ug/ml) subtype B” value is more than 10 µg/mL. The “Neut IC50 (ug/ml) subtype A” value in assay [2] is more than 10 µg/mL.

B4: ADI-15661 (antibody, V domains shown)
VH: EVQLVESGGGVVQPGRSLRLSCEASGFNFHNYDIQWVRQAPGKGLEWVALVLFDGSKKYYPHSVKGRFAISRDNSKKTLFLQMNSLRPEDTAVYYCARAPVTGASYYLDYWGQGTLVTVSS
VL: SYVLTQPPSVSVAPGQTARITCGANNIGNKGVHWYQQKPGQAPVLVVYDDDDQPSGIPERFSGSNSGNTATLTISRVEAGDEADYYCQVWDSTSDHLVFGGGTQLTVL
As for B4, in assay [1], the “Neut IC50 (ug/ml) subtype B” value is more than 10 µg/mL. In addition, in assay [2], the “Neut IC50 (ug/ml) subtype A” value turned out to be 0.021 µg/mL.

B5: ADI-15562 (antibody, V domains shown)
VH: QVQLVQSGAEVKKPGDSLKISCKNAGHTSRIYWIAWVRQMPAKGLEYMGIIFPGDSDTRYSPSFRGQVTISADRSIRTAYLQLSSLKASDTGIYYCATQGLEGAFDYWGQGTLVTVSS
VL: DIRLTQSPSSLSASVGDRVTITCQASQDISNQLNWYQQKPGTAPKLLIYDASFLQTGVPSRFSGSGSGTHFTFTITSLQPEDFATYFCQHYDSFPIFTFGPGTKLEIK
As for B5, the “Neut IC50 (ug/ml) subtype A” value in assay [2] was 0.01 µg/mL.

B6: ADI-15630 (antibody, V domains shown)
VH: QVQLVQSGGGLVKPGGSLRLSCAASGFIFSDYYMVWIRQAPGKGLEWVSYISSSSRYINYADSVKGRFTISRDNAKNSLFLQMNTVRAEDTAVYYCAQGWYSDFWSGPIRIWGQGTLVTVSS
VL: DIQLTQSPSSLSASVGDRVTITCQASQDISNSLNWFQQKPGKAPKLLIFDAYNLETGVPSRFSGSGSGTDFTLTISSLQPEDIATYYCQQNDNLVLTFGGGTKLEIK
On to B6, for which, in assay [1], the “Neut IC50 (ug/ml) subtype B” value amounted to 6.64 µg/mL. Besides, in assay [2], the “Neut IC50 (ug/ml) subtype A” value was more than 10 µg/mL.

B7: ADI-15613 (antibody, V domains shown)
VH: EVQLVESGAEVKKPGSSVKVSCKVSGGTFSTYGISWIQQAPGQGLEWVGGIIPMFGTANYAQRFQGRVTLTADEGTNTAYMELNNLRSEDTAMYYCARDRGNNGRYYAMDVWGQGTTVTVSS
VL: DIVLTQTPATLSLSPGERATLSCRASQSVTTYLAWYQQKPGQAPRLLIYDTSNRATGIPARFSGSGSGTDFTLTISSLEPEDFAVYYCQQRNNWPPTFGQGTRLEIK
With B7, the “Neut IC50 (ug/ml) subtype B” value in assay [1] is 3.04 µg/mL. Further, the “Neut IC50 (ug/ml) subtype A” value in assay [2] is 0.862 µg/mL.
